Assay results as given in PMC2858024, “Identification and molecular characterization of a novel flavin-free NADPH preferred azoreductase encoded by azoB in Pigmentiphaga kullae K24” (BMC Biochemistry, 2010).

How the values were obtained:
Assay in all cases: purified protein
purified protein [1] = substrate: NC(=O)C1=CN([C@@H]2O[C@H](COP(=O)(O)OP(=O)(O)OC[C@H]3O[C@@H](n4cnc5c(N)ncnc54)[C@H](OP(=O)(O)O)[C@@H]3O)[C@@H](O)[C@H]2O)C=CC1; conditions: apparent, Orange I 30 μM, potassium phosphate pH 6.8, room temperature (general assay)
purified protein [2] = substrate: NC(=O)C1=CN([C@@H]2O[C@H](COP(=O)(O)OP(=O)(O)OC[C@H]3O[C@@H](n4cnc5c(N)ncnc54)[C@H](O)[C@@H]3O)[C@@H](O)[C@H]2O)C=CC1; conditions: apparent, Orange I 30 μM, potassium phosphate pH 6.8, room temperature (general assay)
purified protein [3] = substrate: O=S(=O)(O)c1ccc(N=Nc2ccc(O)c3ccccc23)cc1; conditions: apparent, co-substrate NADPH 1 mM, potassium phosphate pH 6.8, room temperature (general assay)

B1: AzoB (Pigmentiphaga kullae) (protein)
chain: MNIAIIGATGNVGSRLVNEALARGHHVTAIARHASRLAARPGLDTLDIDLADGAKLAGALRGKDAAISSVRFATSPLAAVLGPVRQAGLRRLLVVGGAGSLEVAPGAALVDTPTFPAEYKPEALAGRDWLNALRTEKDLDWTFLSPSALFVPGERTGTFRLGGDTLLTAADGRSWISMEDFAIAMLDEVEKPAHTGRRFTVGY
Purified protein [1]
  Km: 1.0 µM
  Vmax: 33 µmol/min/mg
Purified protein [2]
  Km: 170 µM
  Vmax: 17 µmol/min/mg
Purified protein [3]
  Km: 3.0 µM
  Vmax: 36 µmol/min/mg
